Earlier results in PMC3817581.

How the values were obtained:
Conditions in all cases: not stated in this article
Asp27 = Asp27 (UniProt position 156, PLCGSDNKTYG)
Asp7 = Asp7 (UniProt position 136, AAVSVDCSEYP)
Glu10 = Glu10 (UniProt position 139, SVDCSEYPKPA)
Glu19 = Glu19 (UniProt position 148, PACTLEYRPLC)
Glu43 = Glu43 (UniProt position 172, CNAVVESNGTL)

Turkey ovomucoid third domain (OMTKY3) (Meleagris gallopavo)
pKa (Asp27): 2.2 | pKa (Asp7): 2.5 | pKa (Glu10): 4.1 | pKa (Glu19): 3.2 | pKa (Glu43): 4.8
